From patent US20230079439A1 (University of California, published 2023)
Numbered stars: 1 amine (or outer) side, 2 acyl side, 3 side chain; on linkers, the order of the positions; unused ones are H or OH. Suc = O=C(CCC(=O)[*:2])[*:1]

Biological target: neurexins (NXs) located on the plasma membrane of INS-1E cells (rat)
Assay: cell-based or functional assay

B1: HSA-112 (HSA-28 dimer formed by bridging two HSA-28 monomers via amide bonds with active ester PEG2000) (peptide)
peptide: {PEG2000-Suc}-QQGEFLNYD-NH2
modifications: also: dimer of two HSA-28 monomers bridged via PEG2000
Which “EC50 of the increase of GSIS in INS-1E cells” value does the source give for B1 here?
Its value is 32 µM.
